Measured values from patent publication US20240342244A1, “Isthmin Protein Therapeutics for the Treatment of Non-Alcoholic Fatty Liver Disease” (The Board of Trustees of the Leland Stanford Junior …, priority 2021, published 2024).

Legend:
[1] = test system: human SGBS adipocytes; test: 2-deoxy-3H-glucose uptake in human SGBS adipocytes; format: cell-based
Description: Mouse and human pre-adipocytes culture and differentiation. Inguinal fat pads from 4-8 week old C57BL/6J male and female mice were dissected and mechanically digested for 10 min using spring scissors. Digested tissues were incubated in WAT isolation buffer (10 ml PBS, 2.4 U/ml dispase II (#04942078001, Roche), 10 mg/ml collagenase D (#11088858001, Roche) at 37° C. for 45 min. 20 mL growth media was added and the tissue suspension was filtered through a 100-μm cell strainer and centrifuged at 600×g for 5 min. The cell pellets were resuspended in 20 mL growth media, filtered through a 40-μm cell strainer, centrifuged at 600×g for 5 min, resuspended in 10 mL growth media, and plated in 10-cm collagen-coated dishes. The cells were cultured in growth media (DMEM/F-12 Glutamax, Thermo Fisher Scientific #10565018) supplemented with 10% fetal bovine serum. Two days post-confluency, differentiation was induced with growth media containing 1 μM rosiglitazone, 0.5 mM isobutylmethylxanthine, 1 μM dexamethasone, 5 μg/mL insulin. After two days, cells were re-fed with growth media containing 1 μM rosiglitazone and 5 μg/mL insulin. Cells were fully differentiated after 6-8 days. For ISM1 knockdown or overexpression in primary adipocytes using adenovirus, 500 μL crude virus was mixed with 500 μL fresh growth media containing 1 μM rosiglitazone and 5 μg/mL insulin was added to each well at day 2 of differentiation. At day 4, virus-containing media was removed and 500 μL fresh growth media without stimulators was added to each well. SGBS cells were differentiated as described previously (Fischer-Posovszky et al., 2008; Wabitsch et al., 2001). Briefly, cells were cultured in growth media DMEM/F-12 Glutamax, supplemented with 10% fetal bovine serum, 33 uM biotin, and 17 uM pantothenate. Two days post confluency, differentiation was induced with serum-free DMEM/F12 media containing 33 uM biotin, 17 uM pantothenate, 0.01 mg/ml transferrin, 20 nM insulin, 100 nM cortisol, 0.2 nM triiodothyronine, 25 nM dexamethasone, 0.25 mM isobutyl methylxanthine, and 2 μM rosiglitazone. After four days, cells were re-fed with growth media containing 0.01 mg/ml transferrin 20 nM insulin, 100 nM cortisol, 0.2 nM triiodothyronine. Cells were fully differentiated after day 8-10.
Glucose uptake. Glucose uptake was performed as previously described (You et al., 2017). Briefly, 2-Deoxy-d-[2,6-3H]-glucose was purchased from PerkinElmer NEN radiochemicals. Fully differentiated adipocytes were washed with KRH buffer and starved in 0.5% BSA in KRH buffer for 4 h. Indicated concentrations of insulin or ISM1 were added at indicated time points. Cells were treated with a mixture of 500 μM 2-deoxy-D-glucose and 1.71 μCimL^−1 2-Deoxy-D-[1,2-3H (N)]-glucose for another 10 min followed by three washes using ice cold KRH buffer containing 200 mM glucose. The passive glucose uptake in the presence of 50 uM CytoB was less than 12% of the total glucose uptake. Cells were solubilized in 1% SDS and radioactivity was measured by liquid scintillation counting.

[2] = test system: pAKT^S473; test: pAKT S473 western blot in human SGBS adipocytes and human primary skeletal muscle cells; format: cell-based
Description: (§1) Western blots and molecular analyses. For western blotting, homogenized tissues or whole-cell lysates, samples were lysed in RIPA buffer containing protease inhibitor cocktail (Roche) and phosphatase inhibitor cocktail (Roche). Cell lysates were centrifuged at 14,000×g for 15 min and supernatants were prepared in 4×LDS Sample Buffer (Invitrogen) and separated by SDS-PAGE and transferred to Immobilon 0.45 μm membranes (Millipore). For Western blotting of plasma samples, 1 μl of plasma was prepared in 2× sample buffer (Invitrogen) with reducing agent, boiled, and analyzed using Western blot against indicated antibody. Protein kinase array (R&D systems ARY003B) was performed according to the manufacturers' description. All antibodies used in this paper are described in STAR methods.

[3] = test system: pTyr; test: Western blot of pTyr levels; format: cell-based; conditions: 100 nM; 2 minutes
Description: as §1

[4] = test system: SREBP1c, FAS, ACC; test: Lipogenic protein and gene expression in AML12 hepatocytes; format: cell-based, mouse
Description: Gene expression analysis. Total RNA from cultured cells or tissues was isolated using TRIzol (Thermo Fischer Scientific) and Rneasy mini kits (QIAGEN). RNA was reverse transcribed using the ABI high capacity cDNA synthesis kit. For qRT-PCR analysis, cDNA, primers and SYBR-green fluorescent dye (ABI) were used. Relative mRNA expression was determined by normalization with Cyclophilin levels using the ΔΔCt method.
as §1

[5] = test system: DIO mice; test: Therapeutic ISM1 administration for five days in DIO mice; format: in vivo, mouse; conditions: 5 mg/kg for five days
Description: Therapeutic ISM1 recombinant protein administration in vivo. All pharmacologic studies using recombinant ISM1 protein were performed in mice with established diet-induced obesity or non-alcoholic fatty liver disease (NAFLD). For all experiments, male C57BL/6J mice purchased from Jax were fed either a high-fat diet (#D12492, Research Diets) or a NAFLD diet (#D09100310, Research Diets) prior to ISM1 protein injections. In all experiments, mice were mock injected with saline for three days prior to protein or drug injections to prevent stress-induced weight loss. Mice were I.P. injected with vehicle (saline) or indicated doses of ISM1 protein diluted in saline. For the 14-day experiments in NAFLD mice, 7-weeks old mice were fed with NAFLD diet for 3 weeks and then mock injected with saline for 3 days prior to protein injections. The induction of lipid accumulation with NAFLD diet was verified by the significant increase in hepatic lipid levels compared with mice on chow diet at the same time point. […] At the end of the experiments, mice and tissue weights were recorded. […]
Glucose tolerance and insulin tolerance tests. […] Blood glucose levels were measured at 0, 15, 30, 45, 60, 90 and 120 mins. […] Blood glucose levels were measured at 0, 15, 30, 45, 60, 90 and 120 mins.

B1: ISM1: recombinant mouse ISM1 protein with a C-terminal myc-his tag generated in mammalian HEK 293 Expi cells (protein, UniProt A2ATD1 30-454, looked up)
Isthmin-1: SDRQDAAAGNNNLNLESDSTSETSFPLSKEAPEEHQVVHQPFPRQRFPPETGHPSLQRDGPRSFLLDLPNFPDLSKADINGQNPNIQVTIEVVDGPDSEAEKDQHPENKPSWSLPAPDWRAWWQRSLSLARTNSGDQDDKYDSTSDDSNFLSVPRGWDRPAPGHRTFETKEQPEYDSTDGEGDWSLWSVCSVTCGNGNQKRTRSCGYACIATESRTCDRPNCPGIEDTFRTAATEVSLLAGSEEFNATKLFEVDMDSCERWMSCKSEFLKKYMHKVINDLPSCPCSYPTEVAYSTADIFDRIKRKDFRWKDASGPKEKLEIYKPTARYCIRSMLSLESTTLAAQHCCYGDNMQLITRGKGAGTPNLISTEFSAELHYKVDVLPWIICKGDWSRYNEARPPNNGQKCTESPSDEDYIKQFQEAREY
modifications: C-terminal myc-His tag
notes: recombinant mouse ISM1 protein with a C-terminal myc-his tag generated in mammalian HEK 293 Expi cells
Question: Which “effect on glucose uptake relative to that of insulin” value ([1]; SGBS cells) does the source give for B1 here?
Answer: 50-100%

Question: What about the “increase in glucose uptake” value ([1]; [3H]-2-deoxy-glucose, starting from 20 nM, 30 minutes) of the same molecule?
Answer: 1.5 fold

Question: And the “concentration from which glucose uptake is increased” value ([1]; doses ranging from 10 nM to 200 nM)?
Answer: 20 nM

Question: What about the “pAKT^S473 induction” value ([2]; human SGBS adipocytes) of the same molecule?
Answer: induced pAKT^S473

Question: What about the “pAKT^S473 induction” value ([2]; human primary skeletal muscle cells (HSMC), 100 nM, 5 min) of the same molecule?
Answer: induced pAKT^S473

Question: And the “tyrosine phosphorylation of proteins” value [3]?
Answer: induces phosphorylation of tyrosine residues on proteins >100 kDa in size

Question: What about the “SREBP1c cleavage, FAS and ACC protein expression” value ([4]; 50 nM insulin, with or without ISM1, 24 h) of the same molecule?
Answer: counteracts the insulin-induced increase in SREBP1c cleavage to the mature form

Question: And the “ChREBPβ and PGC1β gene expression” value ([4]; AML12 hepatocytes)?
Answer: reduced

Question: What about the “fas, acc and scd1 gene expression” value ([4]; in the presence of insulin, 6 h) of the same molecule?
Answer: significantly reduced

Question: What about the “insulin tolerance (ITT)” value [5] of the same molecule?
Answer: modest improvement

Question: What about the “ad lib glucose levels” value ([5]; vs vehicle) of the same molecule?
Answer: no difference
